Reference: patent publication US20210403565A1 (BIOATLA, published 2021)

T1: recombinant human CTLA4 extracellular domain (human, UniProt P16410 36-161)
T1 construct: extracellular domain; also called huCTLA-4
T1 sequence (looked up): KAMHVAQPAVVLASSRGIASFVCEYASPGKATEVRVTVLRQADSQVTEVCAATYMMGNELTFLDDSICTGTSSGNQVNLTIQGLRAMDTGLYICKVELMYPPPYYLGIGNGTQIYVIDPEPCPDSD

T2: human CTLA4 expressed on the cell surface of CHO cells (human, UniProt P16410 36-223)
T2 construct: whole, on cells; also called CHO-huCTLA4; huCTLA4
T2 sequence (looked up): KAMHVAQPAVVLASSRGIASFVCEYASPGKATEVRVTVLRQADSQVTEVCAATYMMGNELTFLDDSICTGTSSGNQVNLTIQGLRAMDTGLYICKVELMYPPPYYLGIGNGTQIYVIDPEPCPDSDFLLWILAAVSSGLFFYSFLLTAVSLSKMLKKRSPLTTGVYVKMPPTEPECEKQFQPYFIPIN

T3: cynomolgus CTLA4 expressed on the cell surface of CHO cells (cynomolgus, UniProt G7PL88 36-223)
T3 construct: whole, on cells; also called CHO-cynoCTLA4
T3 sequence: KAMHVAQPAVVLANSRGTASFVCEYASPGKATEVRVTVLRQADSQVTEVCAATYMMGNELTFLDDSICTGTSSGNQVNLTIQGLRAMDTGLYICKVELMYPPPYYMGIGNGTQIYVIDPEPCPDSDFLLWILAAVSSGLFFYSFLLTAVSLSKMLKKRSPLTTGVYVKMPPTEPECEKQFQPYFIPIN


Columns and labels:
[1] = target: T1, recombinant human CTLA4 extracellular …; experiment: ELISA, wells coated with human CTLA4, assay pH 6.0; lot 6978 in His buffer, T0; unit from the axis Log[ng/mL]
Method: (§1) Both ELISA and FACS analysis were used to measure the binding activity. […] The amount of bound antibodies was quantified using anti-human IgG antibody conjugated to HRP. The absorbance at 450 nm in each measurement was proportional to the amount of antibodies bound. […] EC50 value (in ng/mL) for binding to human CTLA4 was determined by absorbance at 450 nm against antibody concentration with Prism variable slope of four-parameter dose-response curve, which was calculated using the nonlinear fit (variable slope, four parameters) model built into GraphPad Prism software (version 7.03). The buffers tested included His buffer (His), Tris buffer (Tris), Glutamine buffer (Glu) and no buffer.

[2] = target: T2, human CTLA4 expressed on the cell …; experiment: FACS, cells expressing human CTLA4, assay pH 7.4, MFI; lot 6978 in His buffer, T0; unit from the axis Log[ng/mL]
Method: (§2) The amount of bound antibodies was quantified using anti-human IgG antibody conjugated to fluorophores. The MFI in each reaction was proportional to the amount of antibodies bound. The EC₅₀ value (in ng/mL) for binding to human CTLA4 on cells was determined by MFI of the singlets population against antibody concentration with a Prism variable slope of four-parameter dose-response curve, which was calculated using the nonlinear fit (variable slope, four parameters) model built into GraphPad Prism software (version 7.03).

[3] = target: T2, human CTLA4 expressed on the cell …; experiment: FACS, cells expressing human CTLA4, assay pH 6.0, MFI; lot 6978 control without test buffer; same column repeated in FIG. 10E and FIG. 10F; unit from the axis Log[ng/mL]
Method: as §2

[4] = target: T2, human CTLA4 expressed on the cell …; experiment: FACS, cells expressing human CTLA4, assay pH 7.4, MFI; lot 6978 control without test buffer; same column repeated in FIG. 10E and FIG. 10F; unit from the axis Log[ng/mL]
Method: as §2

[5] = target: T1, recombinant human CTLA4 extracellular …; experiment: ELISA, wells coated with human CTLA4, assay pH 7.4; lot 6978 in Tris buffer, T0; curve still rising at log 3 (OD450 at most about 0.3), no plateau; unit from the axis Log[ng/mL]
Method: as §1

[6] = target: T1, recombinant human CTLA4 extracellular …; experiment: ELISA, wells coated with human CTLA4, assay pH 7.4; lot 6978 in Glu buffer, T2W; curve still rising at log 3 (OD450 at most about 0.3), no plateau; unit from the axis Log[ng/mL]
Method: as §1

[7] = target: T3, cynomolgus CTLA4 expressed on the cell …; experiment: FACS, CHO cells expressing cynomolgus CTLA4 (CHO-cynoCTLA-4), pH 7.4, MFI; curve near baseline up to log 4, about 150000 at log 5, no plateau; no unit in the table, unit from the axis Log Antibodies [ng/ml]
Method: (§3) The amount of antibodies bound on the cells was quantified using anti-human IgG antibody conjugated to fluorophores. EC₅₀ values at pH 6.0 and 7.4 for binding to cells were calculated using the nonlinear fit (variable slope, four parameters) model built into GraphPad Prism software (version 7.03). The expression levels of human CTLA4 or cynomolgus CTLA4 on the surface of the CHO cells were determined using a BD QuantiBRITE™ PE kit.
(§4) At least two independent duplicate FACS experiments were performed for each antibody using each of the cell lines. The binding activities at different concentrations of the antibodies are plotted in these figures.

[8] = target: T1, recombinant human CTLA4 extracellular …; experiment: ELISA, immobilised huCTLA-4, table head pH 7.0 (text: pH 7.4), Jul. 11, 2017
[9] = target: T1, recombinant human CTLA4 extracellular …; experiment: ELISA, immobilised huCTLA-4, table head pH 7.0 (text: pH 7.4), Jun. 27, 2017
[10] = target: T1, recombinant human CTLA4 extracellular …; experiment: ELISA, immobilised huCTLA-4, table head pH 7.0 (text: pH 7.4), Jun. 29, 2017
[11] = target: T2, human CTLA4 expressed on the cell …; experiment: FACS, cells expressing human CTLA4, assay pH 7.4, MFI; lot 6972 in Tris buffer, T2W; unit from the axis Log[ng/mL]
Method: as §2

[12] = target: T3, cynomolgus CTLA4 expressed on the cell …; experiment: FACS, CHO cells expressing cynomolgus CTLA4 (CHO-cynoCTLA-4), pH 7.4, MFI; curve still rising at log 5 (about 600000 against about 1900000 for Ipilimumab), no plateau; no unit in the table, unit from the axis Log Antibodies [ng/ml]
Method: as §3, §4

| EC50 [1] [µg/mL] | EC50 [2] [µg/mL] | EC50 [3] [µg/mL] | EC50 [4] [µg/mL] | EC50 [5] [µg/mL] | EC50 [6] [µg/mL] | EC50 [7] [µg/mL] | EC50 [8] [µg/mL] | EC50 [9] [µg/mL] | EC50 [10] [µg/mL] | EC50 [11] [µg/mL] | EC50 [12] [µg/mL] | Binder |
| --- | --- | --- | --- | --- | --- | --- | --- | --- | --- | --- | --- | --- |
| 0.038 | 0.849 | 0.158 | 0.868 | 1.14 | 0.724 | 83.9 | – | – | – | – | – | BA-087-08-32 (antibody, V domains shown, Detected with anti-human IgG and a molecular weight of 146 kDa was used in SPR, so it was tested as a whole IgG; also called BA-087-08-032; BA-087-08-32 (# 6978)) VH: EVQLVQSGAEVKKPGATVKISCKVSGFTFSHYTMHWIRQSPSRGLEWLGFISYDGNYKYYADSVKGRFTISRDNAKNSLYLQMNSLRAEDTAVYYCARTGWLGPFDYWGQGTLVTVSS VL: EIVMTQSPATLSVSPGERATLSCRASQSVGSSYLAWYQQKPGKAPKLLIYGAFSRATGVPSRFSGSGSGTDFTLTISSLQPEDFATYYCQQDGSSPWTFGQGTKVEIK |
| – | – | – | – | – | – | – | 0.0502 | 0.0358 | 0.0934 | 0.537 | 8.28 | BA-087-05-19 (antibody, V domains shown, Detected with anti-human IgG and a molecular weight of 146 kDa was used in SPR, so it was tested as a whole IgG; also called BA-087-05-019; BA-087-05-19 (# 6972)) VH: EVQLVESGGGLVQPGGSLRLSCAASGFTFSHYTMHWVRQAPGKGLEWVSFISYDGNNKYYADSVKGRFTISRDNSKNTLYLQMNSLRAEDTAVYYCARTGWLGPFDYWGQGTLVTVSS VL: AIQLTQSPSSLSASVGDRVTITCRASQYVGSSYLAWYLQKPGQSPQLLIYGAFSRATGIPARFSGSGSGTEFTLTISSLQSEDFAVYYCQQDGSSPWTFGQGTKVEIK |
